Residue numbers refer to the chain shown, from its start.
How the values were obtained:
[1] = Hydrophobic interaction chromatography and LC-MS analysis of drug loading; format: physicochemical; conditions: after TCEP reduction and conjugation with maleimide-GGFG-DXd
Procedure: Antibody 1 and Antibody 2 were separately incubated with TCEP (Sigma) to reduce and open the disulfide bonds between the two heavy chains, followed by the addition of maleimide-GGFG-DXd (MedChemExpress) for conjugation. The conjugates were then purified using a desalting column to remove excess small-molecule drug.

[2] = Size-exclusion chromatography analysis of aggregate formation; format: physicochemical; conditions: DXd conjugates, FIG. 7 and FIG. 9
Procedure: Size-exclusion chromatography analysis was performed. […]
Based on Antibody 3 and Antibody 4, amino acid residues with different properties were inserted between the cysteine residues at positions 4 and 5. Specifically: nonpolar amino acids, exemplified by the insertion of two alanine residues (A); polar uncharged amino acids, exemplified by the insertion of two serine residues (S); basic amino acids, exemplified by the insertion of two lysine residues (K); and acidic amino acids, exemplified by the insertion of two glutamic acid residues (E) or two aspartic acid residues (D), as shown in Table 5. The different mutants were expressed and purified. […]
The different mutants listed in Table 6 were expressed and purified. […] The thermal stability of these ten heavy-chain antibodies was further evaluated using dynamic light scattering (DLS). A DLS (Wyatt) instrument was used to monitor light scattering of the antibodies during heating from 25 °C to 85 °C, thereby determining the aggregation temperature (Tagg) of the antibodies.
VHH1 was separately linked to the engineered human IgG2 Fc or the engineered human IgG4 Fc shown in Table 7 to construct heavy-chain antibodies. After expression and purification, Mutant 37, Mutant 38, Mutant 39, and Mutant 40 were obtained.

[3] = system: OVCAR-3 cells; assay: Cell killing assay, cell viability by CellTiter-Glo; format: cell-based, human; conditions: 5 days at 37°C; compared to Antibody 1-DXd, FIG. 11
Procedure: OVCAR-3 cells were seeded into a 96-well plate at a density of 5,000 cells per well and cultured overnight at 37°C. Antibody 1-DXd, Mutant 22-DXd, Mutant 23-DXd, Mutant 37-DXd, Mutant 38-DXd, Mutant 39-DXd, and Mutant 40-DXd were serially diluted and added to the 96-well plate containing OVCAR-3 cells, followed by incubation at 37°C for 5 days. Cell viability was measured using CellTiter-Glo (Promega) to evaluate the killing effects of the antibody-drug conjugates.

B1: Mutant 37-DXd (conjugate)
heavy: QVQLVESGGGLVQPGGSLRLSCAASGITFPVNAYGWYRQAPGKQRDLVAIISAGGTTNYADSVKGRFTISRDNSKNTLYLQMNSLRAEDTAVYYCYLQRRIGMLRDYWGQGTQVTVSSERKCDDCVECPPCPERKCCVECPPCPAPPVAGPSVFLFPPKPKDTLMISRTPEVTCVVVDVSHEDPEVQFNWYVDGVEVHNAKTKPREEQFNSTFRVVSVLTVVHQDWLNGKEYKCKVSNKGLPAPIEKTISKTKGQPREPQVYTLPPSREEMTKNQVSLTCLVKGFYPSDIAVEWESNGQPENNYKTTPPMLDSDGSFFLYSKLTVDKSRWQQGNVFSCSVMHEALHNHYTQKSLSLSPGK
[1]
  drug-to-antibody ratio (DAR) value: 8
[2]
  size-exclusion chromatography peak profile after conjugation: normal
[3]
  killing effect on OVCAR-3 cells: significantly enhanced killing effect

B2: Mutant 38-DXd (conjugate)
heavy: B1 heavy with D123E, D124E
[1]
  drug-to-antibody ratio (DAR) value: 8
[2]
  size-exclusion chromatography peak profile after conjugation: normal
[3]
  killing effect on OVCAR-3 cells: significantly enhanced killing effect
